Experimental data from patent US20220119522A1 (DENALI THERAPEUTICS, published 2022).
Numbering of substitutions follows the chain as printed. Blank lines part the entries; values can stand above or below the binder they belong to. No end group written: not given here.

Columns and labels:
[1] = biological target: T1, His-tagged human TREM2 ECD (human, UniProt Q9NZC2 19-172); assay: SPR (Biacore)
T1 construct: Biacore and HDX say only recombinant human TREM2 (ECD); also called recombinant human TREM2; hTREM2
T1 sequence: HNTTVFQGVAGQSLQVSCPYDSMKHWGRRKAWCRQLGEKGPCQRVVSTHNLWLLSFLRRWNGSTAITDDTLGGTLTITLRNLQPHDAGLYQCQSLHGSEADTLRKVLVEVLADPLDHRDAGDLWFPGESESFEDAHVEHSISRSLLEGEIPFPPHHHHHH
Procedure: (§1) Surface plasmon resonance (Biacore™ 8K instrument) was used to measure anti-TREM2 antibody affinities for human and cynomolgus TREM2 ECD. Anti-TREM2 antibodies were captured using Human Fab Capture Kit (GE Healthcare Life Sciences, Catalog No. 28958325) on a Biacore Series S CM5 sensor chip (GE Healthcare Life Sciences, Catalog No. 29149604). Serial 3-fold dilutions of recombinant human or cynomolgus TREM2 were injected at a flow rate of 30 μL/min. Antibody binding was monitored for 300 seconds, followed by monitoring of antibody dissociation for 600+seconds in HBS-EP+ running buffer (GE Healthcare Life Sciences, Catalog No. BR100669). The binding response was corrected by subtracting the RU value from a blank flow cell. A 1:1 Languir model of simultaneous fitting of kₒₙ and koff was used for kinetics analysis.
(§2) Sequence optimization was conducted by searching within CDR sequences for residues that are susceptible to chemical modification (e.g., asparagine deamidation motifs (NG), aspartic acid isomerization motifs (DS), and potential oxidation residues (tryptophan (W) and methionine (M)) and making amino acid substitutions with conservative and germline residues to remove such sequence liabilities. Humanized and sequence-optimized variants of anti-TREM2 antibodies were then analyzed for binding kinetics using Biacore and dose-titrated cell binding to HEK293-H6 cells (see, Example 1 for representative protocols).

[2] = biological target: T2, human TREM2 on the cell surface (human, UniProt Q9NZC2 19-230); assay: flow cytometry, dose-titrated binding to HEK293-H6 cells
T2 construct: also called surface TREM2; TREM2 expressed in HEK293-H6 cells
T2 sequence: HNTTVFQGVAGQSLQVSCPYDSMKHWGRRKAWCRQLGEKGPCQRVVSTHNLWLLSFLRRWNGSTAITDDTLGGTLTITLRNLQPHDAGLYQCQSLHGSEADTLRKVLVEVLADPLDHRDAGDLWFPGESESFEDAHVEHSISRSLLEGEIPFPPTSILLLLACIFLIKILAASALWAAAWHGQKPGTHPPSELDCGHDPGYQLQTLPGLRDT
Procedure: After incubation, the cells were centrifuged and washed in FACS buffer (PBS+0.5% BSA) twice. Mixed cells were resuspended in FACS buffer with human Trustain FcX solution (Biolegend, Catalog No. 422302) at a density of 10⁶/mL per cell line. The mixed cell lines were seeded at 200,000 cells per well in a 96-well round-bottom plate and incubated for 20 minutes at room temperature. After incubation, the cells were centrifuged and incubated with anti-TREM2 antibodies of about 0-200 nM dose titration for 45 minutes on ice. After incubation, the cells were centrifuged and washed with FACS buffer three times. […] After incubation, the cells were washed with FACS buffer three times, resuspended in 100 μL of FACS buffer, and analyzed by flow cytometry (BD FACSCanto II, San Jose, Calif.), for which 30,000 events were obtained for each sample. Mean fluorescence intensity per cells were calculated by FlowJo software and used for generating dose response binding curve.
as §2

[3] = biological target: T3, human TREM2 full length stalk region peptide (aa 129-172) (human, biotinylated (site not stated)); assay: ELISA on biotinylated peptide captured by streptavidin; A450 normalised to isotype control
T3 construct: also called Human TREM2 peptide (aa 129-172); full-length TREM2 stalk peptide
T3 peptide: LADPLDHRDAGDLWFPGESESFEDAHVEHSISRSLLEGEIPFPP
Procedure: (§3) TREM2 antibodies were evaluated for binding to human and mouse TREM2 stalk region peptides. […] Antibody binding to TREM2 stalk peptides was detected using standard sandwich ELISA. Briefly, a 96-well half-area ELISA plate was coated with streptavidin overnight at 4° C. The following day, biotinylated TREM2 stalk peptides diluted in 1% BSA/PBS were added to the plate and incubated for 1 hour. Antibodies diluted in 1% BSA/PBS were then added and incubated for 1 hour. Antibodies bound to peptide were detected with anti-human kappa-HRP secondary antibody (Bethyl Laboratories, Inc.) diluted in 1% BSA/PBS. Plates were assayed by reaction with a detection reagent (One-step TMB Ultra, Thermo) and measurement of absorbance at 450 nm (A450) by standard spectrophotometry instrumentation (BioTek®). Data are shown as normalized values (fold over background where background=isotype control).

[4] = biological target: T4, human TREM2 truncated stalk peptide (aa 149-163) (human, also: biotinylated (site not given here)); assay: as above
T4 construct: also called Human TREM2 peptide (aa 149-163); truncated stalk peptide containing the ADAM10/17 cleavage site
T4 peptide: SFEDAHVEHSISRSL
Procedure: as §3

[5] = biological target: T5, mouse TREM2 full length stalk region peptide (aa 131-169) (mouse, UniProt Q99NH8 131-169, biotinylated (site not stated)); assay: as above
T5 peptide (looked up): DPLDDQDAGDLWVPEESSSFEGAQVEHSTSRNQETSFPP
Procedure: as §3

[6] = biological target: T6, recombinant cynomolgus TREM2 ECD (cynomolgus); assay: SPR (Biacore), antibody captured via anti-human Fab, recombinant TREM2 ECD injected, 1:1 fit
T6 construct: extracellular domain; also called cyno TREM2
Procedure: as §1

[7] = biological target: T1, His-tagged human TREM2 ECD; assay: as above
Procedure: as §1

[8] = biological target: T2, human TREM2 on the cell surface; assay: cell-based or functional assay
[9] = biological target: T2, human TREM2 on the cell surface; assay: cell binding, human macrophages, dose titration

B1: CL0020123-1 (antibody, V domains shown)
VH: QVQLVQSGAEVKKPGASVKVSCKASGFSIEDFYIHWVRQAPGQGLEWMGWIDPENGDSKYAPKFQGRATITADTSTSTAYMELSSLRSEDTAVYYCHADHGNYGSTMDYWGQGTLVTVSS
VL: DIQMTQSPSSLSASVGDRVTITCHASQHINVWLSWYQQKPGKAPKLLIYKASNLHTGVPSRFSGSGSGTDFTLTISSLQPEDFATYYCQQGQTYPRTFGQGTKVEIK
notes: Humanized variant of CL0020123 (hVH NGDS/2 m, Vk graft); also called Clone CL0020123-1
Kd [1]: 0.14 nM | EC50 [2]: 0.25 nM

B2: CL0020123-8 (antibody, V domains shown)
VH: B1 VH with N55Q, D57E, A68V
VL: B1 VL
notes: Humanized variant of CL0020123 (hVH QGES/1 m, Vk graft); also called Clone CL0020123-8
Kd [1]: 0.39 nM | EC50 [2]: 0.38 nM

B3: CL0020123-2 (antibody, V domains shown)
VH: B1 VH with A68V
VL: B1 VL
notes: Humanized variant of CL0020123 (hVH NGDS/1 m, Vk graft); also called Clone CL0020123-2
Kd [1]: 0.18 nM | EC50 [2]: 0.23 nM

B4: CL0020123-3 (antibody, V domains shown)
VH: B1 VH with N55Q
VL: B1 VL
notes: Humanized variant of CL0020123 (hVH QGDS/2 m, Vk graft); also called Clone CL0020123-3
Kd [1]: 0.4 nM | EC50 [2]: 0.24 nM

B5: CL0020123-4 (antibody, V domains shown)
VH: B1 VH with D57E
VL: B1 VL
notes: Humanized variant of CL0020123 (hVH NGES/2 m, Vk graft); also called Clone CL0020123-4
Kd [1]: 0.17 nM | EC50 [2]: 0.17 nM

B6: CL0020123-6 (antibody, V domains shown)
VH: B1 VH with N55Q, A68V
VL: B1 VL
notes: Humanized variant of CL0020123 (hVH QGDS/1 m, Vk graft); also called Clone CL0020123-6
Kd [1]: 0.32 nM | EC50 [2]: 0.29 nM

B8: CL0020139 (antibody, V domains shown)
VH: EVQLQQSGPELVKPGASVKMSCKAPGYSFTSYLMNWVKQKPGQGLEWIGYINPYSAGSNYNEKFKDKATLTSDKSSSTAYMELRSLTSEDSAVYFCARSSYRYGFDYWGQGTTLTVSS
VL: DIQMTQSSSSFSVSLGDRVTITCKASEDIYNRLAWYQQKPGNAPRLLISGATSLETGVPSRFSGSGSGKDYTLSITSLQTEDVATYSCQQYWSTPWTFGGGTKLEIK
notes: also called Clone CL0020139
EC50 [9]: 1.6 nM | fold over background (A450) [3]: 1.6 fold | fold over background (A450) [4]: 1.3 fold | fold over background (A450) [5]: 1.4 fold | Kd [6]: 0.3 nM | Kd [7]: 1.6 nM | NFAT EC50 (nM), plate coated mAb [8]: 30.8 nM | Survival EC50 (nM), plate coated mAb, human macrophages [8]: 1.8 nM | pSyk activation (human macrophages) EC50 (nM) [8]: 23.8 nM

Further lines, with some results ahead:

fold over background (A450) [3]: 14 fold | fold over background (A450) [4]: 1.7 fold | fold over background (A450) [5]: 5.4 fold | Kd [6]: 13.4 nM | Kd [7]: 0.54 nM | NFAT EC50 (nM), plate coated mAb [8]: 81.7 nM | pSyk activation (human macrophages) EC50 (nM) [8]: 9.5 nM
B7: CL0020201 (antibody, V domains shown)
VH: EVQLQQSGPVLVKPGASVRMSCKPSGYTFTDYYMNWVKQSHGKSLEWIGSINPYTGGSSYNQNFRGKATLTVDKSSSTAYMELNSLTSEDSAVYYCARGSYYSNLGFAYWGQGTLVTVSA
VL: DVQLTQSPSFLTASPGETITINCRASKSISKYLAWYQEKPGKTNKLLISSGSTLQSGIPSRFSGSGSGTDFTLTISSLEPEDFAMYYCQQYSEYPFTFGSGTKLEIK
notes: also called Clone CL0020201
Survival EC50 (nM), plate coated mAb, human macrophages [8]: 6.6 nM

EC50 [9]: 1.2 nM | fold over background (A450) [3]: 12 fold | fold over background (A450) [4]: 1.2 fold | Kd [6]: 13.8 nM | Kd [7]: 14 nM | pSyk activation (HEK293-H6) EC50 (nM) [8]: 46.6 nM
B9: CL0020313 (antibody, V domains shown)
VH: QVQLKQSGPGLLQPSQSLSITCTVSGFSLTSYGVHWVRQSPGKGLEWLGVIWSGGITLYNAAFMSRLSITKDNSKSQVFFKMNSLQADDTAIYYCAKVGYGSSSDYWGQGTTLTVSS
VL: DVLMTQSPLSLPVSLGDQASFSCRSSQSIVHSNGNTYLEWYLQKPGQSPKLLIYKVSNRFSGVPDRFSGSGSGTDFTLKISRVEAEDLGVYYCFQGSHVPFTFGSGTKLEIK
notes: also called Clone CL0020313
Survival EC50 (nM), plate coated mAb, human macrophages [8]: 30.7 nM

EC50 [9]: 0.6 nM | fold over background (A450) [3]: 11 fold | fold over background (A450) [5]: 7.9 fold | Kd [6]: 2.28 nM | Kd [7]: 2.31 nM | NFAT EC50 (nM), plate coated mAb [8]: 51.9 nM | pSyk activation (HEK293-H6) EC50 (nM) [8]: 33.4 nM
B10: CL0020308 (antibody, V domains shown)
VH: QVQLKQSGPSLVQPSQSLSITCTVSGFSLTTYGIHWVRQSPGKGLEWLGVIWTGGSTAFNAAFMSRLSITKDNSKSQVFFKMNSLQADDTAIYYCAKVGFHSATDYWGQGTSVTVSS
VL: B9 VL with S7T, S14T, F21I, S28N, I29L, V90L
notes: also called Clone CL0020308
Survival EC50 (nM), plate coated mAb, human macrophages [8]: 8.9 nM

EC50 [9]: 0.7 nM | fold over background (A450) [3]: 11 fold | fold over background (A450) [5]: 6.6 fold | Kd [6]: 5.33 nM | Kd [7]: 5.31 nM | pSyk activation (HEK293-H6) EC50 (nM) [8]: 40.6 nM
B11: CL0020309 (antibody, V domains shown)
VH: B10 VH with T31S, I34V, H35Q, S56T, A58D, M64K, T90S, V98I, T104V
VL: B9 VL with S7T, F21I, S28N, S81N, V90L, V99I, K108Q
notes: also called Clone CL0020309
Survival EC50 (nM), plate coated mAb, human macrophages [8]: 2.69 nM

EC50 [9]: 0.05 nM | fold over background (A450) [3]: 11 fold | fold over background (A450) [4]: 1.2 fold | fold over background (A450) [5]: 1 fold | Kd [6]: 56.9 nM | Kd [7]: 0.33 nM | pSyk activation (HEK293-H6) EC50 (nM) [8]: 18.8 nM
B12: CL0020314 (antibody, V domains shown)
VH: DVKLVESGGGLVKLGGSLKLSCAASGFTFSSYYMSWVRQTPEKRLELVAAINTNGGRTYYPDTVKGRFTISRDNAKNTLYLQMSSLKSEDTALYYCARESDGGAFAYWGQGTLVTVSA
VL: DVVMTQTPLSLPVSLGDQASISCRSSQSLVHSNGNTYLHWYLQKPGQSPKLLIYKVSNRFSGVPDRFSGSGSGTDFTLKISRVEAEDLGVYFCSQNTHVPLTFGAGTKLELK
notes: also called Clone CL0020314
Survival EC50 (nM), plate coated mAb, human macrophages [8]: 1.6 nM

EC50 [9]: 5.6 nM | fold over background (A450) [3]: 8.7 fold | fold over background (A450) [4]: 1.3 fold | fold over background (A450) [5]: 6.8 fold | Kd [6]: 2.52 nM | Kd [7]: 0.0259 nM | NFAT EC50 (nM), plate coated mAb [8]: 72.7 nM
B13: CL0020315 (antibody, V domains shown)
VH: EVQLQQSGPELVKPGASVKISCKASGYTFTDYNIHWVKQSHGKSLEWIGYIYPYNGVTGYNQKFKSKATLTVDNSSSTAYMELRSLTSEDSAVYYCARSRVDGDYWGQGTTLTVSS
VL: B12 VL with V56I, N96S
notes: also called Clone CL0020315
Survival EC50 (nM), plate coated mAb, human macrophages [8]: 10.1 nM
